From patent US6379959 (UNIVERSITAT AUTONOMA DE BARCELONA, dated 2002)
Positions of bridges follow the written chain, without caps; N, C: chain ends. No end group written: not given here.

Experiments:
[1] = target: T1, receptor for epidermic growth factor (EGF-R) on Capan-1 and A431 cells (human (human cell line Capan-1), UniProt P00533 25-1210); assay: competition with 125I-EGF on Capan-1 cells, two-site fit (Graphpad Inplot4); low affinity site
T1 construct: whole, on cells; both are called EGF receptors; also called EGF receptor; receptor of EGF
Procedure: (§1) From the previous adjustment, the value of $IC50$ for the two binding sites and the percentage of each type of binding sites was determined.

[2] = target: T1, receptor for epidermic growth factor …; assay: competition with 125I-EGF on Capan-1 cells, two-site fit (Graphpad Inplot4); high affinity site
Procedure: as §1

B1: potato carboxypeptidase inhibitor, isoform IIa, recombinant (other)
chain: EQHADPICNKPCKTHDDCSGAWFCQACWNSARTCGPYVG
modifications: disulfide 12-27, 18-34, 8-24
notes: Secreted from E. coli MC1061 (pIMAM3, OmpA signal peptide directly before the first codon of native PCI); also called PCI; rPCI
With B1 as the binder, how does the IC50 [1] read?
Its IC50 is 579 µM.

And the IC50 [2]?
Its IC50 is 0.014 nM.
